# Patent US12383631
# Tests used:
# Test in all cases: cell-based or functional assay
# [1] = target: IL-18 polypeptide C143 (human) (UniProt Q14116)
# [2] = target: IL-18 polypeptide C147 (human) (UniProt Q14116)
# [3] = target: IL-18 polypeptide of SEQ ID NO: 9 (E6K, C38A, K53A, C68A, D98C) (human) (UniProt Q14116)
# [4] = target: IL-18 polypeptide of SEQ ID NO: 5 (E6K, V11I, C38A, K53A, T63A, C68A, C76A, M86C, C127A) (human) (UniProt Q14116)
# [5] = target: IL-18 polypeptide C150 (human) (UniProt Q14116)
# [6] = target: IL-18 polypeptide C153 (human) (UniProt Q14116)
# [7] = target: Composition B (Atezolizumab/Tecentriq conjugated to IL-18 polypeptide of SEQ ID NO: 30) (human) [IgG part: P0DOX5]
# [8] = target: IL-18 polypeptide C154 (human) (UniProt Q14116)
# [9] = target: IL-18 polypeptide C158 (human) (UniProt Q14116)
# [10] = target: IL-18 polypeptide of SEQ ID NO: 62 (E6K, C38A, K53A, C127A) (human) (UniProt Q14116)
# [11] = target: Composition C (Trastuzumab/Herceptin conjugated to IL-18 polypeptide of SEQ ID NO: 30) (human)
# [12] = target: IL-18 polypeptide of SEQ ID NO: 50 (E06K, K53A, T63A) (human) (UniProt Q14116)
# [13] = target: IL-18 polypeptide of SEQ ID NO: 34 (E06K, K53A, S55A) (human) (UniProt Q14116)
# [14] = target: IL-18 polypeptide of SEQ ID NO: 38 (E06K) (human) (UniProt Q14116)
# [15] = target: IL-18 polypeptide C152 (human) (UniProt Q14116)
# [16] = target: IL-18 polypeptide of SEQ ID NO: 40 (E06K, S55A) (human) (UniProt Q14116)
# [17] = target: IL-18 polypeptide C160 (human) (UniProt Q14116)
# [18] = target: IL-18 polypeptide C155 (human) (UniProt Q14116)
# [19] = target: IL-18 polypeptide of SEQ ID NO: 54 (E06K, K53A, C38S, C68S, C76S, C127S, K70C) (human) (UniProt Q14116)
# [20] = target: IL-18 polypeptide of SEQ ID NO: 42 (E06K, K53A, S55A, T63A) (human) (UniProt Q14116)
# [21] = target: IL-18 polypeptide of SEQ ID NO: 59 (E6K, C38A, K53A) (human) (UniProt Q14116)
# [22] = target: native IL-18 wild-type (SEQ ID NO: 1) (human) (UniProt Q14116)
# [23] = target: IL-18 polypeptide C168 (human) (UniProt Q14116)
# [24] = target: IL-18 polypeptide of SEQ ID NO: 48 (C38S, C68S, C76S, C127S, K70C) (human) (UniProt Q14116)
# [25] = target: IL-18 polypeptide of SEQ ID NO: 35 (Y01G, F02A, E06K, M51G, K53A, D54A, S55A, T63A) (human) (UniProt Q14116)
substance,measurement,setting,value
"Fc fused human IL-18 binding protein isoform a (IL-18BPa; R&D systems, Cat #119-BP) (from UniProt O95998 31-194) (Fc fusion)","IC50 of IL-18BP on IFNγ secretion, NK92 cells",[1],1.62 nM
same,"IC50 of IL-18BP on IFNγ secretion, NK92 cells",[2],47.6 nM
same,"IC50 of IL-18BP on IFNγ secretion, NK92 cells",[3],961 nM
same,"IC50 of IL-18BP on IFNγ secretion, NK92 cells",[4],62.4 nM
same,"IC50 of IL-18BP on IFNγ secretion, NK92 cells",[5],21.3 nM
same,"IC50 of IL-18BP on IFNγ secretion, NK92 cells",[6],2.22 nM
same,IC50 of IL-18BPa on IFNγ secretion by NK92 cells,[7],> 1000 nM
same,"IC50 of IL-18BP on IFNγ secretion, NK92 cells",[8],3.71 nM
same,"IC50 of IL-18BP on IFNγ secretion, NK92 cells",[9],3.98 nM
same,"IC50 of IL-18BP on IFNγ secretion, NK92 cells",[10],284 nM
same,IC50 of IL-18BPa on IFNγ secretion by NK92 cells,[11],21.4 nM
same,"IC50 of IL-18BP on IFNγ secretion, NK92 cells",[12],> 1000 nM
same,"IC50 of IL-18BP on IFNγ secretion, NK92 cells",[13],229 nM
same,"IC50 of IL-18BP on IFNγ secretion, NK92 cells",[14],7.79 nM
same,"IC50 of IL-18BP on IFNγ secretion, NK92 cells",[15],7.85 nM
same,"IC50 of IL-18BP on IFNγ secretion, NK92 cells",[16],15 nM
same,"IC50 of IL-18BP on IFNγ secretion, NK92 cells",[17],3.18 nM
same,"IC50 of IL-18BP on IFNγ secretion, NK92 cells",[18],3.23 nM
same,"IC50 of IL-18BP on IFNγ secretion, NK92 cells",[19],23.5 nM
same,"IC50 of IL-18BP on IFNγ secretion, NK92 cells",[20],1060 nM
same,"IC50 of IL-18BP on IFNγ secretion, NK92 cells",[21],654 nM
same,"IC50 of IL-18BP on IFNγ secretion, NK92 cells",[22],1.47 nM
same,IC50 of IL-18BPa on IFNγ secretion by NK92 cells,[22],0.781 nM
same,"IC50 of IL-18BP on IFNγ secretion, NK92 cells",[23],0.176 nM
same,"IC50 of IL-18BP on IFNγ secretion, NK92 cells",[24],0.114 nM
same,"IC50 of IL-18BP on IFNγ secretion, NK92 cells",[25],> 55 nM
